Test in all cases: cell-based or functional assay
The target in assay [1] is HIV-1 92UG005 Env (HIV-1).
The target in assay [2] is HIV-1 CMU02 envelope protein (Env) on pseudovirus (HIV-1).
For assay [3], the target named is HIV-1 Env of isolate MGRM-AG-013 (pseudovirus) (HIV-1).
For assay [4], the target named is HIV-1 Env of isolate MGRM-F1-018 (pseudovirus) (HIV-1).
Assay [5] concerns the target HIV-1 Env of isolate MGRM-F1-023 (pseudovirus) (HIV-1).
For assay [6], the target named is HIV-1 JR-CSF Env I415A (HIV-1 (isolate JR-CSF)) (UniProt P20871).
Assay [7] deals with HIV-1 envelope glycoprotein (Env) of isolate 94UG103, subtype A (HIV-1).
The target in assay [8] is HIV-1 envelope glycoprotein (Env) of isolate APV_17, on pseudovirus (HIV-1).
Assay [9] has as its target HIV-1 envelope glycoprotein (Env) of isolate MG RM-A-010, subtype A (HIV-1).
Assay [10] has as its target HIV-1 envelope glycoprotein (Env) of isolate MG RM-A-011, subtype A (HIV-1).
For assay [11], the target named is HIV-1 envelope glycoprotein (Env) of isolate MGRM-Chronic-B-004, on pseudovirus (HIV-1).
The target in assay [12] is HIV-1 envelope glycoprotein (Env) of isolate MGRM-Chronic-B-018, on pseudovirus (HIV-1).
Assay [13] addresses HIV-1 envelope glycoprotein (Env) of isolate VLGCB3, on pseudovirus (HIV-1).
Assay [14] deals with HIV-1 Env of isolate 92RW008 (pseudovirus) (HIV-1).
The target in assay [15] is HIV-1 Env of isolate 92TH021 (subtype AE) (HIV-1).
The target in assay [16] is HIV-1 Env of isolate JRFL (HIV-1).
Assay [17] has as its target HIV-1 Env of isolate MGRM-A-005 (pseudovirus) (HIV-1).
In assay [18] the target is HIV-1 Env of isolate MGRM-C-004 (HIV-1).
Assay [19] concerns the target HIV-1 Env of isolate MGRM-D-022 (pseudovirus) (HIV-1).
The target in assay [20] is HIV-1 Env of pseudovirus isolate MGRM-C-024 (clade C) (HIV-1).
Assay [21] addresses HIV-1 Env of pseudovirus isolate MGRM-C-028 (clade C) (HIV-1).
In assay [22] the target is HIV-1 Env of isolate MGRM-AE-002 (pseudovirus) (HIV-1).
The target of assay [23] is HIV-1 Env of isolate MGRM-G-015 (subtype G) (HIV-1).
For assay [24], the target named is HIV-1 Env of isolate MGRM-G-016 (subtype G) (HIV-1).
The target of assay [25] is HIV-1 Env of isolate MGRM-D-020 (clade D pseudovirus) (HIV-1).
The target of assay [26] is HIV-1 Env of isolate TRJ0.58 (Acute), clade B (HIV-1).
Assay [27] addresses HIV-1 Env of pseudovirus MGRM-G-024 (HIV-1).
The target in assay [28] is HIV-1 IAVI-C22 envelope (Env) on pseudovirus (HIV-1).
The target in assay [29] is HIV-1 MGRM-AE-006 Env (pseudovirus) (HIV-1).
Assay [30] deals with HIV-1 MGRM-AG-002 Env (pseudovirus) (HIV-1).
Assay [31] has as its target HIV-1 envelope glycoprotein (Env) of isolate MGRM-C-010 (HIV-1).

Consider 4858_P08 (PGT-123) (antibody), for which the IC50, pseudovirus neutralization in assay [1] was 2.49 µg/mL; in assay [7], 0.678 µg/mL; in assay [8] it was 0.114 µg/mL; in [9], 0.705 µg/mL; in assay [10], greater than 50 µg/mL; in assay [11] it was 8 ng/mL. Moreover, the IC50, pseudovirus neutralization in assay [12] was greater than 50 µg/mL; in assay [13], 4 ng/mL. The same substance gave an IC50 (ug/mL), pseudovirus neutralization in [2] greater than 10 µg/mL. The IC50 (µg/mL), pseudovirus neutralization in assay [3] came out at 3.37 µg/mL; in assay [4], 0.054 µg/mL; in assay [5] it was 0.053 µg/mL. Besides, the Fold IC50 increase relative to wild-type (pseudovirus neutralization) in [6] was 0.4 fold.

For 4838_L06 (PGT-121) (antibody), the IC50, pseudovirus neutralization in assay [1] was greater than 10 µg/mL; in [7] it was 2.52 µg/mL; in [8], 0.066 µg/mL; in assay [9] it was 2.44 µg/mL; in [10], greater than 50 µg/mL; in assay [11], 9 ng/mL. Moreover, the IC50, pseudovirus neutralization in assay [12] is greater than 50 µg/mL; in assay [13], 5 ng/mL. In assay [2], this substance registered an IC50 (ug/mL), pseudovirus neutralization greater than 10 µg/mL. Besides, the IC50 (µg/mL), pseudovirus neutralization in assay [4] turned out to be 0.04 µg/mL; in assay [5], 0.097 µg/mL.

On to 5145_B14 (PGT-127) (antibody), for which the IC50 (µg/mL), pseudovirus neutralization in [3] came out at 0.018 µg/mL; in assay [4] it was 3.59 µg/mL; in [5], 0.119 µg/mL. The same substance registered a Fold IC50 increase relative to wild-type (pseudovirus neutralization) in assay [6] of 2.1 fold. Besides, the IC50, pseudovirus neutralization is 0.017 µg/mL in assay [7]; 10.4 µg/mL in assay [8]; 0.017 µg/mL in assay [9]; greater than 50 µg/mL in assay [10]; 18 ng/mL in assay [11]; 1.9 µg/mL in assay [12]. The IC50, pseudovirus neutralization in [13] stood at 22 ng/mL.

5136_H01 (PGT-131) (antibody): the IC50 (µg/mL), pseudovirus neutralization was 1.01 µg/mL in assay [14]; 0.454 µg/mL in [16]; greater than 50 µg/mL in [17]; 3.71 µg/mL in assay [18]; greater than 50 µg/mL in assay [19]. The IC50, pseudovirus neutralization in assay [15] is 0.014 µg/mL; in assay [20], greater than 50 µg/mL; in assay [21], greater than 50 µg/mL. The Fold IC50 increase relative to wild-type (pseudovirus neutralization) in assay [6] worked out at 0.6 fold.

For 5114_A19 (PGT-128) (antibody), the IC50 (µg/mL), pseudovirus neutralization in [14] is 0.003 µg/mL; in assay [16], 0.007 µg/mL; in assay [17] it was greater than 50 µg/mL; in assay [18], 0.025 µg/mL; in assay [19], greater than 50 µg/mL. For the same substance, the figures for the IC50, pseudovirus neutralization in [15], in assay [20] and in assay [21] were 0.01 µg/mL, greater than 50 µg/mL and 14.4 µg/mL, respectively. For the same substance, in assay [6], the Fold IC50 increase relative to wild-type (pseudovirus neutralization) amounted to 0.7 fold.

PGV04 (antibody): the IC50 (µg/mL), pseudovirus neutralization in assay [22] came out at 0.569 µg/mL; in assay [3] it was 0.03 µg/mL; in assay [23], 0.333 µg/mL; in [24] it was 0.019 µg/mL.

In the case of 4877_D15 (PGT-122) (antibody), the IC50, pseudovirus neutralization in [1] was greater than 10 µg/mL; in assay [7], 2.04 µg/mL; in [8], 0.25 µg/mL; in [9], 2.51 µg/mL; in [10], greater than 50 µg/mL; in assay [11], 8 ng/mL. The IC50, pseudovirus neutralization in assay [12] was greater than 50 µg/mL; in assay [13], 8 ng/mL. In addition, the IC50 (ug/mL), pseudovirus neutralization in assay [2] is greater than 10 µg/mL. For the same substance, the IC50 (µg/mL), pseudovirus neutralization in [3] was found to be 0.521 µg/mL; in assay [4] it was 0.563 µg/mL; in [5], 0.154 µg/mL.

In the case of 5345_I01 (PGT-137) (antibody), the IC50 (µg/mL), pseudovirus neutralization in [14] was 0.148 µg/mL; in assay [16], greater than 50 µg/mL; in assay [17] it was greater than 50 µg/mL; in assay [18] it was 0.026 µg/mL; in [19], greater than 50 µg/mL. The IC50, pseudovirus neutralization in assay [15], in assay [20] and in [21] was greater than 50 µg/mL in each case.

Regarding 5329_C19 (PGT-136) (antibody), the IC50 (ug/mL), pseudovirus neutralization in assay [2] is greater than 10 µg/mL. Besides, the IC50 (µg/mL), pseudovirus neutralization is greater than 50 µg/mL in assay [14]; greater than 50 µg/mL in [16]; greater than 50 µg/mL in assay [17]; 0.034 µg/mL in assay [18]; greater than 50 µg/mL in assay [19]. The IC50, pseudovirus neutralization in [15] was greater than 50 µg/mL; in assay [20], greater than 50 µg/mL; in [21] it was 33.7 µg/mL.

Regarding 5141_B17 (PGT-126) (antibody), the IC50, pseudovirus neutralization in [1] is 0.0181 µg/mL; in [7], 0.008 µg/mL; in assay [8], 0.353 µg/mL; in assay [9], 0.002 µg/mL; in [10] it was greater than 50 µg/mL; in assay [11], 10 ng/mL. Also, the IC50, pseudovirus neutralization in assay [12] stood at 0.052 µg/mL; in [13], 7 ng/mL. In assay [2], this substance returned an IC50 (ug/mL), pseudovirus neutralization greater than 10 µg/mL. Moreover, the IC50 (µg/mL), pseudovirus neutralization in assay [3] is 0.008 µg/mL; in [4], 14.9 µg/mL; in [5], 0.009 µg/mL. Also, in assay [6], the Fold IC50 increase relative to wild-type (pseudovirus neutralization) was 0.3 fold.

As for 5123_A06 (PGT-125) (antibody), the IC50, pseudovirus neutralization in [1] is greater than 10 µg/mL; in assay [7], 0.008 µg/mL; in assay [8] it was 8.06 µg/mL; in assay [9], 0.004 µg/mL; in [10] it was greater than 50 µg/mL; in [11], 7 ng/mL. In addition, the IC50, pseudovirus neutralization in assay [12] was greater than 50 µg/mL; in assay [13], 15 ng/mL. Besides, the IC50 (ug/mL), pseudovirus neutralization in assay [2] is greater than 10 µg/mL. Besides, the IC50 (µg/mL), pseudovirus neutralization in assay [3] was 0.004 µg/mL; in [4] it was greater than 50 µg/mL; in [5] it was 0.12 µg/mL. In assay [6], this substance showed a Fold IC50 increase relative to wild-type (pseudovirus neutralization) of 0.3 fold.

1496_C09 (PG9) (TCN-109) (antibody): the IC50 (µg/mL), pseudovirus neutralization amounted to 0.04 µg/mL in assay [22], 0.259 µg/mL in assay [3], 6.6 µg/mL in assay [23] and 1.36 µg/mL in [24]. In assay [25], this substance yielded an IC50, pseudovirus neutralization of 2.03 µg/mL. The IC50 (µg/ml), pseudovirus neutralization in assay [26] is 0.43 µg/mL; in assay [27], 0.07 µg/mL; in [29], 0.05 µg/mL; in [30], 0.04 µg/mL; in [31], 12.4 µg/mL. In addition, in assay [28], the neutralization IC50 worked out at 24.9 µg/mL.
